Assay [1] has as its target T1, periplasmic domain of Vibrio cholerae ToxS (ToxSp) (Vibrio cholerae).
T1 chain: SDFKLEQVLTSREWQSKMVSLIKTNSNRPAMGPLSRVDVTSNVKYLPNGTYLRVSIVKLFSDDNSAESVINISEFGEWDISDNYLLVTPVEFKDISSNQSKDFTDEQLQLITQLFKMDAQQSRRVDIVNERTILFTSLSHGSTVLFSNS
The assay is described as follows: SEC-MALS. As to conditions: both partners purified. For orientation: Size exclusion chromatography separates by hydrodynamic size, large species first.

For assay [2], the target named is T2, ToxSp H10_S11insC labelled with 5-iodoacetamidofluorescein (Vibrio cholerae).
T2 construct: also called FITC ToxSp H10_S11insC
T2 chain: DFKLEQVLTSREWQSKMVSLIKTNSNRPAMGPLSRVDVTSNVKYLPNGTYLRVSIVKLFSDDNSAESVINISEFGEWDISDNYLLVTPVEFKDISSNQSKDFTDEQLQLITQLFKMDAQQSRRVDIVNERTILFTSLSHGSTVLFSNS
The assay is described as follows: fluorescence polarisation. The following applies: both partners purified. Background: Polarisation of emitted light reports the rotation of a fluorescent probe.

B1: periplasmic domain of Vibrio cholerae ToxR, oxidized, with an intramolecular disulfide bond (ToxRp-ox) (domain or fragment)
chain: PSQTSFKPLTVVDGVAVNMPNNHPDLSNWLPSIELCVKKYNEKHTGGLKPIEVIATGGQNNQLTLNYIHSPEVSGENITLRIVANPNDAIKVCE
notes: also called pToxR-ox; ToxRp-ox-V.c
With B1, the stoichiometry N (commonly a count of units in the complex or per binding partner) in assay [1] came to 1 ToxRp per ToxSp. Also, binding in assay [2] was put at a Kd of 11.6 ± 3.4 nM.
